For one substance, M1R-induced [3H]GDP release from Gi3 Δ5 (Fig. 3c) (% GDP release) results are on record in article PMC7308389.

The experiment deals with muscarinic acetylcholine receptor type 1 (M1R) (human) (UniProt P11229).
UniProt P11229, sequence (P11229 whole entry): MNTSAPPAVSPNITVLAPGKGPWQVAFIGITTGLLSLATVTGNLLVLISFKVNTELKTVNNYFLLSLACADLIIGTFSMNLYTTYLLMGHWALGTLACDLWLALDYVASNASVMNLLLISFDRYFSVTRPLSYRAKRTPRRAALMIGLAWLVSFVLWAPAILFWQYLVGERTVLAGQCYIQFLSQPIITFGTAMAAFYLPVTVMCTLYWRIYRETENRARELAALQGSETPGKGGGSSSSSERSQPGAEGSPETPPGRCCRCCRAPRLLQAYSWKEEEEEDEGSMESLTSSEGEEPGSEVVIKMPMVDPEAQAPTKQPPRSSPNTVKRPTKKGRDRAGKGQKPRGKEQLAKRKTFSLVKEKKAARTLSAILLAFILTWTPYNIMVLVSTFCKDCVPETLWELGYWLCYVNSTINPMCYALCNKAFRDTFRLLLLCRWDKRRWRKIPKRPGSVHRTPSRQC

Substance “Gi3_Δ5 (Gαi3 with the last five residues truncated, with added Gβγ) (from UniProt P08754 1-349; P62873 1-340; P59768 1-71) (complex)” came in with an M1R-induced [3H]GDP release from Gi3 Δ5 (Fig. 3c) (% GDP release) of 20.
